Measurements reported in the nanobody polyreactivity screen of Harvey et al. (2022).

assay: yeast display, Sf9 membrane polyspecificity reagent, FACS + sequencing; frameworks hold sequencing errors
In short: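 Synthetic nanobody libraries on Saccharomyces cerevisiae BJ5465 were galactose-induced for 36–48 hours, stained 1 hour at 4 °C with 10% biotinylated, detergent-solubilized Sf9 membrane reagent and enriched on streptavidin microbeads. FACS then separated cells into low and high (top ~1%) gates by anti-HA (expression) and streptavidin (reagent binding) fluorescence. Genes were colony-PCR amplified, MiSeq 2 × 250 sequenced and CDR-length filtered. A clone's polyreactivity label is that of its gate of origin.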

Sequence	polyreactivity (PSR sort gate)
QVQLVESGGGLVQAGGSLRLSCAASGLIFSAYAMGWYRQAPGKERELVAAISRRGTSTYYADSVKGRFTISRDNAKNTVYLQMNSLKPEDTGVYYCAADGYVFEGDYWGQGTQVTVSS	high polyreactivity
QVQLVESGGGLVQAGGSLRLSCAASGLIFSAYAMGWYRQAPGKERELVAGISRRGSTYYADSVKGRFTISRDNAKNTVYLEMNCLKPEDTAVYYFAAFFRVRFRASGYDYWGQGTQVTVSS	high polyreactivity
QVQLVESGGGLVQAGGSLRLSCAASGLIFSRNAMGWNRPAPGKERELVAAISTGGSTYYADSVKGRFTISRDNAKNTVYLQMNRLKPVDTAVYYCAAAPGYIYEYWGQGTQVTVSS	low polyreactivity
QVQLVESGGGLVQAGGSLRLSCAASGLIFSRYTMGWYRQAPGKERELVAAISKTGSSTYYADSVKGRFTISRDNAKNTVYLQMNSLKPEDTAVYYCAAETGTGETRYYRYWDYYYWGQGTQVTVSS	high polyreactivity
QVQLVESGGGLVQAGGSLRLSCAASGLIFSSNAMGWYRQAPGKERELVAAISRRGANTYYADSVKGRFTISRDNAKNTVYLQMNSLKPQDTAVYYCAKRYVGRGTSYQDYYWGQGTQVTVSS	high polyreactivity
QVQLVESGGGLVQAGGSLRLSCAASGLIFSSYAMGLNRQAPGKEREFVAAISRTGGITYYADSVKGRFTISRDYAKNTVYLQMNSLKPEDTAVYYCNARWYDPTLKVGYWGQVTQVTVSS	high polyreactivity
QVQLVESGGGLVQAGGSLRLSCAASGLIFSSYAMGWYRQAPGKERELVAAISRSGGRTYYADSVKGRFTISRDNAKNTVYLQMNSLKPEDTAVYYCAADRFRSGLDRPEMDYWGQGTQVTVSS	high polyreactivity
QVQLVESGGGLVQAGGSLRLSCAASGLIFSYKTMGWYRQAPGKERELVAAITSGGRTYYADSVKGRFTISRDNAKNTVYLQMNSLKPEDTAVYYCAVLSKWRYDYWGQGTQVTVSS	high polyreactivity
QVQLVESGGGLVQAGGSLRLSCAASGLIFSYNAMGWYRQAPGKERELVAAISYSGGSTYYADSVKGRFTISRDNAKNTVYLQMNSLKPEDTAVYYCAAVLSPDFYYWGQGTQVTVSS	high polyreactivity
QVQLVESGGGLVQAGGSLRLSCAASGLIFSYNAMGWYRQAPGKVRELVATSRRVGSTHYADSVKGRFTISRDNAKNTVYLPMNSLKPEDTAVYDCAARSLRYGRGMYYWGQGTQGTVSS	high polyreactivity
QVQLVESGGGLVQAGGSLRLSCAASGLIFSYYAMGWYRQAPGKERELVAAISRGGSTNYADSVKGRFTISRDDAKNTVYLQMNSLKPEDTAVYYCAARWQWLNGYYYWGQGTQVTVSS	high polyreactivity
QVQLVESGGGLVQAGGSLRLSCAASGLIFTGNVMGWYRQAPGKERELVAAISRSGGRTYYADSVKGRFTISRDNAKNTVYLQMNSLKPEDTAVYYCNKVSPERVYYGSYFRYYYWGQGTQVTVSS	high polyreactivity
QVQLVESGGGLVQAGGSLRLSCAASGLIFTVYAMGWYRQAPGKERELVAAISGTGGSTYYADSVKGRFTISRDNAKNTVYLQMNSLIPEDTAVYYCAAVPIIRLATTSSSRGDYWGQGTQVTVSS	low polyreactivity
QVQLVESGGGLVQAGGSLRLSCAASGLIFTYYAMGWYRQAPGKERELVAAISSSGVNTYYADSVKGRFTISRDNAKNTVYLQMNSLKPEDTAVYYCAAELQPSPVGGIIQYGFDYWGQGTPVTVSS	low polyreactivity
QVQLVESGGGLVQAGGSLRLSCAASGLIFVANAMGWYRQAPGKERELVAAISRSGGITYYADSVKGRFTISRDNAKNTVYLQMNSLKPQDTAVYYCAKTLPSNGHYDYWGQGTQVTVSS	low polyreactivity
QVQLVESGGGLVQAGGSLRLSCAASGLIFVDNAMGLYRQAPGKERELVAAIDSGGSTNYADSVKGRFTISRDNAKTTVYLQMNSLNPEDTAVYYCAADWIYAPWYYQESVEYYYWGQGTQVTVSS	low polyreactivity
